Test results published in patent US20210292393A1 (published 2021).

Each binder was assayed against SARS-CoV-2 full length spike protein, V483A mutant (SARS-CoV-2, UniProt P0DTC2 14-1273).

Binder	median fluorescence intensity, fold over isotype control [fold over isotype]
antibody 264 (antibody, V domains shown) VH: QVHLVESGGGVVQPGRSLRLSCAASGFTLTSYAMHWVRQAPGKGLEWVALISYDGSVKKYAESVKGRITVSGDNSRNTLHLQINTLRADDTAVYYCVRGGVSGPNSFDLWGQGTMVTVSS VL: DVVMTQSPLSLPVTLGQPASISCRSSQSLEYSDGNTYVNWFQQRPGQSPRRLIYQVSNRASGVPDRFSGSGSGTDFTLQISRVEAEDVGIYYCMQGTHWPVTFGQGTKVEIK	11.1
antibody 266 (antibody, V domains shown) VH: QVQLVESGGGVVQPGRSLRLSCAASGFNLSNYAMHWVRQPSGKGLEWVSLISYDGSIKYYTDSVKGRFTVSGDNSKNTLFLQMNSLRPDDSALYYCVRGGVSGPNSFDMWGQGTTVTVSS VL: DVVMTQSPLSLPVTLGQPASISCRSSQSLVYSDGNTYVNWFQQRPGQSPRRLIYQVSIRASGVPDRFSGSGSGTDFALKISRVEAEDVGVYYCMQGTHWPVTFGQGTKVEIK	10.8
antibody 281 (antibody, V domains shown) VH: not shown VL: QSALTQPASVSGSPGQSITISCTGTSSDVGSYNLVSWYQQHPGKAPKLMIYEVSKRPSGVSNRFSGSKSGNTASLTISGLQAEDEADYYCCSYAGSSTHVVFGGGTKLTVL	20.3
antibody 263 (antibody, V domains shown) VH: EVQLVQSGAEVKKPGATVKISCKVSGYTFTDYYMHWVQQAPGKGLEWMGLVDPEDGETIYAEKFQGRVTITADTSTDTAYMELSSLRSDDTAVYYCTTDLAFTIFGGRRGFDPWGQGTLVTVSS VL: DIQLTQSPSFLSASVGDRVTITCRASQGISSYLAWYQQKPGKAPKLLIYAASTLQSGVPSRFSGSGSGTEFTLTISSLQPEDFATYYCQQLNSYDFGQGTRLEIK	17.3
antibody 265 (antibody, V domains shown) VH: EVQLVQSGAEVKKPGATVKVSCKFSGDTFSHYYIHWVQQAPGKGLEWMGLVDPQDGESEYAQKFQGKVTITADTSIDTSYLEVTSLRFDDTAFYFCATRGMSGAFDRWGQGTLVTVSS VL: DIVMTQSPDSLAVSLGERATINCKSSQSILSTSNNKNYLAWYQQKPGQPPKLLIYWASTRESGVPDRFSGGGSGTDFTLTISSLQAEDVAVYYCQQYYRTAYTTPIYTFGQGTKLEIK	14.5
antibody 294 (antibody, V domains shown) VH: EVQLVESGGGLVQPGGSLRLSCAASGFTVSSNYMNWVRQAPGKGLEWVSVIYSGGSTYYADSVKGRFTISRDNSKNTLYLQMNSLRAEDTAVYYCARDLGPSGMDVWGQGTTVTVSS VL: DIQMTQSPSSVSASVGDRVTITCRASQGISSWLAWYQQKPGKAPKLLIYAASSLQSGVPSRFSGSGSGTDFTLTISSLQPEDFATYYCQQANSFPLFGGGTKVEIK	18.4
antibody 288 (antibody, V domains shown) VH: EVQLVESGGGLVQPGGSLRLSCAASGFTFSSYDMHWVRQATGKGLEWVSAIGTAGDTYYPGSVKGRFTISRENAKNSLYLQMNSLRAGDTAVYYCARGANRDYDILTGYYSYYYYGMDVWGQGTTVTVSS VL: not shown	18.7
antibody 295 (antibody, V domains shown) VH: QVQLQESGPGLVKPSQTLSLTCTVSGGSISSSDYYWSWIRQPPGKGLEWIGYIYYSGSTYYNPSLKSRVTISVDTSKNQFSLKLSSVTAADTAVYYCARVVGYCSSTSCYVDYWGQGTLVTVSS VL: EIVLTQSPATLSLSPGERVTLSCRASQSVSSYLAWYQQKPGQAPRLLIYDASNRATGIPARFSGSGSGTDFTLTISSLEPEDFAVYYCQQRSNWPPGLTFGGGTKVEIK	9.93
antibody 284 (antibody, V domains shown) VH: QVTLRESGPALVKPTQTLTLTCTFSGFSLSTSGMCVSWIRQPPGKALEWLALIDWDDDKYYSTSLKTRLTISKDTSKNQVVLTMTNMDPVDTATYYCARTSGYSSSWPSFDYWGQGTLVTVSS VL: not shown	22
antibody 273 (antibody, V domains shown) VH: QVQLVQSGAEVKKPGASVKVSCKVSGYTLTELSMHWVRQAPGKGLEWMGGFDPEDGETIYAQKFQGRVTMTEDTSTDTAYMELSSLRSEDTAVYYCATAPGYYDSSAPQPINWFDPWGQGTLVTVSS VL: QSALTQPASVSGSPGQSITISCTGTSSDVGSYNLVSWYQQHPGKAPKLMIYEVSKRPSGVSNRFSGSKSGNTASLTISGLQAEDEADYYCCSYAGSSTLVFGGGTKLTVL	16
antibody 260 (antibody, V domains shown) VH: EVQLVESGGGLVQPGRSLRLSCAASGFTFDYYAMHWVRQAPGKGLEWVSGISWNSGTIGYADSVKGRFTISRDNAKNSLYLQMNSLRAEDTALYYCAKDSRPSGRYYYGMDVWGQGTTVTVSS VL: not shown	11
antibody 276 (antibody, V domains shown) VH: QVQLQESGPGLVKPSQTLSLTCTVSGDSISSGGYYWSWIRQHPGKGLEWIGYIYYSGSAYYNPSLKSRVTISLDTSKNQFSLKLSSVTAADTAVYYCARDSVAGFSIFDYWGQGTLVTVSS VL: SSELTQDPAVSVALGQTVRITCQGDSLRSYYASWYQQKPGQAPVRVIYGKNNRPSGIPDRFSGSSSGNTASLTITGAQAEDEADYYCNSWDSSGNHVVFGGGTKLTVL	11.1

These binders were tested against SARS-CoV-2 spike protein with D614G mutation (SARS-CoV-2, UniProt P0DTC2 14-1208).

Binder	Kd [nM]
anti-SARS-CoV-2 antibody 1118 (antibody, V domains shown) VH: EVQLVESGGGLVQPGGSLRLSCAASGFRFSNYEMNWVRQAPGKGLEWVSYISSTGGSIFYADSVKGRFTISRGDAKNSVYLQMNSLRAEDTAVYYCARAMYYYGSGTLDYWGQGTLVTVSS VL: DIQMTQSPSSLSASVGDRVTITCRASQSISRFLNWYQQKPGTAPKLLIYDVSSLQSGVPTRFSGSGSGTDFTLTISSLQPEDFATYYCQQSYTTPPAFGPGTRVDIK	0.044
anti-SARS-CoV-2 antibody 1098 (antibody, V domains shown) VH: DVQLVQSGAEVKKPGESLKISCKGSGYRFTSYWIAWVRQMPGKGLEWMGIIYPGDSDTRYSPSFQGQVTISADKSISTAYLQWSSLKASDTAMYYCASQAAAGYFYYMDVWGKGTTVTVSS VL: not shown	0.022
anti-SARS-CoV-2 antibody 1193 (antibody, V domains shown) VH: EVQLVESGGGLVQPGGSLRLSCAASGFTFSSYYMNWVRQAPGKGLEWVSYISSGSSIIYYADSVKGRFTISRDNAKNSLYLQMNSLRDEDTAVYYCARDSPLRYFDWQLGGGFDYWGQGTLVTVSS VL: QSALTQPASVSGSPGQSITISCTGTSSDVGGYNYVSWYQQHPGKAPKLMIYDVSNRPSGVSNRFSGSKSGNTASLTISGLQAEDEADYYCSSYTSSSLWVFGGGTKLTVL	0.041
anti-SARS-CoV-2 antibody 1203 (antibody, V domains shown) VH: QLRLQESGPGLVKPSETLSLTCTVSGGSISSSNFYWGWIRQPPGKGLEWIGSIYYSGSTHYNPSLKSRVTVSVDTSKNQFSLKLSSVTAADTAVYYCARLTYYYDSSGFIRAEPFDYWGQGILVTVSS VL: not shown	0.079
anti-SARS-CoV-2 antibody 1091 (antibody, V domains shown) VH: EVQLVESGGGLVKPGGSLRLSCAASGFPFITYSMNWVRQAPGKGLEWVSSISRNSDYIYYADSVRGRVTISRDNAENSLYLQMHSLRAEDTAVYYCARDVVRSGNYYIPRHGMDVWGRGTTVTVSS VL: QSVLTQPPSASGTPGQRVTISCSGTSSNIGSNTVNWYQQLPETAPKLLIYGTDQRPSGVPDRFSGSKSGTSASLAISRLQSEDEADYYCATRDDSLSGPVFGGGTQLTVL	0.019
